Changes are numbered by the printed parent chain. Names and notes keep the numbering of the source. Values belong to the binder of their own block, whether it stands above or below them.
Assays:
[1] = target: T1, recombinant human IL1RAP ECD (human, UniProt Q9NPH3 21-367); assay: SPR; human KD over cyno KD
T1 construct: His-tagged; also called hIL1RAP-ECD; rhuIL1RAP
T1 sequence: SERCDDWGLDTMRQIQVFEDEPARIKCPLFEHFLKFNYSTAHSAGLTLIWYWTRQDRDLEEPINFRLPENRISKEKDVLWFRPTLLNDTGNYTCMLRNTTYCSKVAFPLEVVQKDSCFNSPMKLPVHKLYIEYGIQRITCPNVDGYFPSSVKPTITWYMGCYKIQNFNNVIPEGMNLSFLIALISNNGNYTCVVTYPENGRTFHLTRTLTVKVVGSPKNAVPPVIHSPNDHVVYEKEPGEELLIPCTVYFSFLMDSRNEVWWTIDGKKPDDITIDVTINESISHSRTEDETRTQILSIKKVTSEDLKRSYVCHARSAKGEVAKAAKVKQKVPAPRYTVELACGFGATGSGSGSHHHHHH

[2] = target: T1, recombinant human IL1RAP ECD; assay: SPR
[3] = target: T2, recombinant cyno IL1RAP ECD (cynomolgus monkey, UniProt P59822 21-367 (rhesus entry)); assay: SPR
T2 construct: also called rcynoIL1RAP
T2 sequence: T1 sequence with L183F, T273P, K326T

[4] = target: T3, mouse IL1RAP ECD displayed on HEK-293F cells (pDisplay) (mouse, UniProt Q61730 21-367); assay: Murine Binder, summary
T3 sequence: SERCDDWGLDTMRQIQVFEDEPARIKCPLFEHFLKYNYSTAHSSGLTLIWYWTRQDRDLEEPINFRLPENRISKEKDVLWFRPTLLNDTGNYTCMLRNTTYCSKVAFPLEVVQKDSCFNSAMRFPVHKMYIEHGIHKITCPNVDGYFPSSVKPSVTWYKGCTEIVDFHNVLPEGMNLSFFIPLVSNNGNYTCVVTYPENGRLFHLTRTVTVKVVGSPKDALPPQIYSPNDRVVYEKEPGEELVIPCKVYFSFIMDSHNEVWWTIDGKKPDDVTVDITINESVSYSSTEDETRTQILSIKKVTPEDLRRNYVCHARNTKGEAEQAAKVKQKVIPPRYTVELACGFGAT

[5] = target: T2, recombinant cyno IL1RAP ECD; assay: SPR; remark: listed apart in the source
[6] = target: T4, human IL1RAP on cells (endogenous) (human, UniProt Q9NPH3 21-570); assay: cell-based or functional assay
T4 sequence (looked up): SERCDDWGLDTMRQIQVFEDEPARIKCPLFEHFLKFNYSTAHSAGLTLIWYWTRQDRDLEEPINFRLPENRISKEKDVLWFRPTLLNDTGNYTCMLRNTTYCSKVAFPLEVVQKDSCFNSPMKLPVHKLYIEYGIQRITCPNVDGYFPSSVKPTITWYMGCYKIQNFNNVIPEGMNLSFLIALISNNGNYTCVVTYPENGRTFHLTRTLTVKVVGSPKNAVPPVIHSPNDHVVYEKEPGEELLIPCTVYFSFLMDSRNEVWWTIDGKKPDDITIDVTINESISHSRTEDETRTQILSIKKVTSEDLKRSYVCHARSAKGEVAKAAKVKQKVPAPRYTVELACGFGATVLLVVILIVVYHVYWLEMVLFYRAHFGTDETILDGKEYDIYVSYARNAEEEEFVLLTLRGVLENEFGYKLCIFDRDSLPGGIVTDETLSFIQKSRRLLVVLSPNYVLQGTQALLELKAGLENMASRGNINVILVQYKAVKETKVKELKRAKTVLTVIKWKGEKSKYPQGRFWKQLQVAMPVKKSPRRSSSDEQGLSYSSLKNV

[7] = target: T1, recombinant human IL1RAP ECD; assay: SPR, summary
[8] = target: T2, recombinant cyno IL1RAP ECD; assay: SPR, summary
[9] = target: T1, recombinant human IL1RAP ECD; assay: SPR; remark: listed apart in the source
[10] = target: T1, recombinant human IL1RAP ECD; assay: SPR, summary; remark: listed apart in the source
[11] = target: T5, cyno IL1RAP ECD displayed on HEK-293F cells (pDisplay) (cynomolgus monkey, UniProt P59822 21-367 (rhesus entry)); assay: HEK-293F cells (MSD)
T5 sequence: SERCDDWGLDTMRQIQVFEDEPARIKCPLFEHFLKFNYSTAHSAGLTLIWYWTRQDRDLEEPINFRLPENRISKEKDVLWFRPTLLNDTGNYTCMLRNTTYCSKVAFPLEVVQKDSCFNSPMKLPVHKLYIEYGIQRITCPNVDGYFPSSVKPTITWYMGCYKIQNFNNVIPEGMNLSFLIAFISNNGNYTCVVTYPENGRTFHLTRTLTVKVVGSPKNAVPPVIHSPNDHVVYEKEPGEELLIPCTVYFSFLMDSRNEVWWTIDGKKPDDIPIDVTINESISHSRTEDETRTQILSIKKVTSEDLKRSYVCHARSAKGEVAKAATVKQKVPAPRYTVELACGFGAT

[12] = target: T2, recombinant cyno IL1RAP ECD; assay: recombinant protein
[13] = target: T1, recombinant human IL1RAP ECD; assay: SPR (ProteOn)
[14] = target: T1, recombinant human IL1RAP ECD; assay: SPR; KD against parent IAPB54
human FcγRI = target: T6, human FcγRI (human, UniProt P12314 16-292, limits assumed); assay: AlphaScreen competition, human FcγRI (n=1); displaced: biotinylated control mAb B21M hIgG1 AlaAla; pH 7.2
T6 construct: GST-tagged, on glutathione acceptor beads; also called FcγRT [sic]
From the text: (§1) Measurements were made using an AlphaScreen™ assay (Amplified Luminescent Proximity Homogeneous Assay (ALPHA), PerkinElmer, Wellesley, Mass.), a bead-based luminescent proximity assay. Laser excitation of a donor bead excites oxygen, which if sufficiently close to the acceptor bead generates a cascade of chemiluminescent events, ultimately leading to fluorescence emission at 520-620 nm.

human FcγRIIb = target: T7, human FcγRIIb (human, UniProt P31994 43-217, limits assumed); assay: AlphaScreen competition, human FcγRIIb (n=1); displaced: biotinylated control mAb B21M hIgG1 WT; pH 7.2
T7 construct: GST-tagged
T7 sequence (looked up): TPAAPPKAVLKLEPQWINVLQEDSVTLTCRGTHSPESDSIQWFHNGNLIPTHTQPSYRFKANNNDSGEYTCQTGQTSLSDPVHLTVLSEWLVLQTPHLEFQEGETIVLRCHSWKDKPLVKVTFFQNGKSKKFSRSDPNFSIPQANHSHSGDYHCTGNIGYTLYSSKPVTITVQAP
From the text: as §1

human FcRn = target: T8, human FcRn (human, UniProt P55899 24-297; P61769 21-119, limits assumed); assay: AlphaScreen competition, human FcRn (n=1); displaced: biotinylated control mAb B21M WT IgG1 (m27); pH 6.0
T8 construct: GST-tagged
From the text: as §1

Hu/Cyno KD Ratio [1]: 0.4
Kd [2]: 7.36 nM
Kd [3]: 16.9 nM
binding result [4]: binds
Kd [5]: 16.9 nM
koff [5]: 0.00223 s⁻¹
kon [5]: 132000 M⁻¹ s⁻¹
Kd [7]: 7.36 nM
Kd [8]: 16.9 nM
Kd [9]: 7.36 nM
koff [9]: 0.000827 s⁻¹
kon [9]: 112000 M⁻¹ s⁻¹
B1: IC3B2 (bispecific antibody, human IgG4 S228P, kappa, lambda, F234A L235A)
heavy 1: EVQLVESGGGLVQPGGSLKLSCAASGFTFNTYAMNWVRQASGKGLEWVGRIRSKYNAYATYYAASVKGRFTISRDDSKNTAYLQMNSLKTEDTAVYYCTRHGNFGNSYVSWFAYWGQGTLVTVSSASTKGPSVFPLAPCSRSTSESTAALGCLVKDYFPEPVTVSWNSGALTSGVHTFPAVLQSSGLYSLSSVVTVPSSSLGTKTYTCNVDHKPSNTKVDKRVESKYGPPCPPCPAPEAAGGPSVFLFPPKPKDTLMISRTPEVTCVVVDVSQEDPEVQFNWYVDGVEVHNAKTKPREEQFNSTYRVVSVLTVLHQDWLNGKEYKCKVSNKGLPSSIEKTISKAKGQPREPQVYTLPPSQEEMTKNQVSLTCLVKGFYPSDIAVEWESNGQPENNYKTTPPVLDSDGSFLLYSKLTVDKSRWQEGNVFSCSVMHEALHNHYTQKSLSLSLGK
light 1: QAVVTQEPSLTVSPGGTVTLTCRSSTGAVTTSNYANWVQQKPGQAPRGLIGGTNKRAPGTPARFSGSLLGGKAALTLSGAQPEDEAEYYCALWYSNLWVFGGGTKLTVLGQPKAAPSVTLFPPSSEELQANKATLVCLISDFYPGAVTVAWKADSSPVKAGVETTTPSKQSNNKYAASSYLSLTPEQWKSHRSYSCQVTHEGSTVEKTVAPTECS
heavy 2: not shown
light 2: not shown
notes: IgG4-PAA, Fab arm exchange; also called IAPB38 x CD3B220
EC50, T-cell mediated cytotoxicity [6]: 0.077 nM

Hu/Cyno KD Ratio [1]: 1.3
Kd [2]: 6.1 nM
Kd [3]: 4.74 nM
binding result [4]: binds
Kd [5]: 4.74 nM
koff [5]: 0.00583 s⁻¹
kon [5]: 1.23e+06 M⁻¹ s⁻¹
Kd [7]: 6.1 nM
Kd [8]: 4.74 nM
Kd [9]: 6.1 nM
koff [9]: 0.00659 s⁻¹
kon [9]: 1.08e+06 M⁻¹ s⁻¹
B2: IC3B7 (bispecific antibody, human IgG4 S228P, kappa, lambda, F234A L235A)
heavy 1: B1 heavy 1
light 1: B1 light 1
heavy 2: not shown
light 2: not shown
notes: IgG4-PAA, Fab arm exchange; also called IAPB17 x CD3B220
EC50, T-cell mediated cytotoxicity [6]: 3.4 nM

Hu/Cyno KD Ratio [1]: 0.9
Kd [2]: 4.56 nM
Kd [3]: 5.27 nM
binding result [4]: binds
Kd [5]: 5.27 nM
koff [5]: 0.00409 s⁻¹
kon [5]: 776000 M⁻¹ s⁻¹
Kd [7]: 4.56 nM
Kd [8]: 5.27 nM
Kd [9]: 4.56 nM
koff [9]: 0.00354 s⁻¹
kon [9]: 776000 M⁻¹ s⁻¹
B3: IC3B11 (bispecific antibody, human IgG4 S228P, kappa, lambda, F234A L235A)
heavy 1: B1 heavy 1
light 1: B1 light 1
heavy 2: not shown
light 2: not shown
notes: IgG4-PAA, Fab arm exchange; also called IAPB9 x CD3B220
EC50, T-cell mediated cytotoxicity [6]: 1.32 nM

Kd [2]: 4.77 nM
binding result [4]: binds
Kd [7]: 4.77 nM
Kd [9]: 4.77 nM
B4: IC3B10 (bispecific antibody, human IgG4 S228P, kappa, lambda, F234A L235A)
heavy 1: B1 heavy 1
light 1: B1 light 1
heavy 2: not shown
light 2: not shown
notes: IgG4-PAA, Fab arm exchange
EC50, T-cell mediated cytotoxicity [6]: 0.124 nM

Kd [10]: 0.58 nM
binding result [11]: binds
binding result [12]: binds
Kd [13]: 0.0775 nM
koff [13]: 7.48e-05 s⁻¹
kon [13]: 965000 M⁻¹ s⁻¹
Fold Different from parent [14]: 1 fold
B5: IAPB54 (antibody, human IgG4 S228P, lambda, F234A L235A, V domains shown)
VH: QVQLVQSGSELKKPGASVKVSCKASGYTFNTYAMNWVRQAPGQGLEWMGWINTNTGNPTYAQGFTGRFVFSLDTSVSTAYLQISSLKAEDTAVYYCARRYFDWLLGAFDIWGQGTMVTVSS
VL: QSALTQPRSVSGSPGHSVTISCTGTSSDVGDYNYVSWYQQRPGKVPKLLIYDVSKRPSGVPDRFSGSKSGNTASLTISGLQAEDEAIYFCCSYAGNYNVVFGGGTKLTVLG
notes: IgG4-PAA; also called 17B04 with human IgG4-PAA

Kd [10]: 0.38 nM
Kd [13]: 0.367 nM
koff [13]: 0.000234 s⁻¹
kon [13]: 638000 M⁻¹ s⁻¹
Fold Different from parent [14]: 4.7 fold
B6: IAPB64 (antibody, human IgG4 S228P, lambda, F234A L235A, V domains shown)
VH: B5 VH
VL: B5 VL with C91S
notes: IgG4-PAA; whole chains; also called IAPB54-LC-C91S

Kd [10]: 0.11 nM
Kd [13]: 0.108 nM
koff [13]: 9.76e-05 s⁻¹
kon [13]: 900000 M⁻¹ s⁻¹
Fold Different from parent [14]: 1.4 fold
IC50 (read off the curve) (human FcγRI): ~90 nM
binding result (human FcγRIIb): binds
IC50 (read off the curve) (human FcRn): ~200 nM
B7: IAPB63 (antibody, human IgG4 S228P, lambda, F234A L235A)
heavy: not shown
light: QSALTQPRSVSGSPGHSVTISCTGTSSDVGDYNYVSWYQQRPGKVPKLLIYDVSKRPSGVPDRFSGSKSGNTASLTISGLQAEDEAIYFCASYAGNYNVVFGGGTKLTVLGQPKAAPSVTLFPPSSEELQANKATLVCLISDFYPGAVTVAWKADSSPVKAGVETTTPSKQSNNKYAASSYLSLTPEQWKSHRSYSCQVTHEGSTVEKTVAPTECS
notes: IgG4-PAA; whole chains; also called IAPB54-LC-C91A

Source: patent US20190270826A1 (Janssen / Centocor, published 2019)
